Experimental data from PMC2988878 (Nature structural & molecular biology, 2010).
Values joined by “and” are separate entries in the source; they are usually repeats but may differ in a detail not shown here. Equal values may be shown once.

Columns and labels:
[1] = target: Pup (Mycobacterium tuberculosis) (UniProt P9WHN5); experiment: anisotropy; conditions: cited from earlier work
crystal structure = target: the molecule itself; experiment: crystal structure
[2] = target: T1, Mycobacterium proteasomal ATPase Mpa, residues 1-234 (Mpa1-234) (Mycobacterium tuberculosis, UniProt P9WQN5 1-234); experiment: crystal structure
T1 sequence: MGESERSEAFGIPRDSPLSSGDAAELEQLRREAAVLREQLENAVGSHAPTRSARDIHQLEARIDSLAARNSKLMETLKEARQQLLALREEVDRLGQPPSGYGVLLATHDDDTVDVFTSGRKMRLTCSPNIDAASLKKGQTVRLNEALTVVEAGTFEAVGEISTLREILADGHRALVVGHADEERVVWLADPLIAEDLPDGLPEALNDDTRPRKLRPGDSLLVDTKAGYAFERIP

For Mpa (from UniProt P9WQN5), the Kd [1] is given as 4.2 µM and 3.4 µM.

B1: Mpa coiled-coil domain, residues 46-96 (Mpa46-96) (domain or fragment)
chain: SHAPTRSARDIHQLEARIDSLAARNSKLMETLKEARQQLLALREEVDRLGQ
For B1, the “stoichiometry N” value (crystal structure) was 2.

B2: Full-length prokaryotic ubiquitin-like protein, Pup1-64-GGQ with a C-terminal non-cleavable His6-tag (natural protein)
chain: MAQEQTKRGGGGGDDDDIAGSTAAGQERREKLTEETDDLLDEIDDVLEENAEDFVRAYVQKGGQ
B2: binds [2].
